The results in this text go back to patent publication US20160362487A1 (Regeneron, published 2016).

As a reminder, the IC50 is the concentration needed to halve the response being measured. Usually koff stands for the first-order rate constant of dissociation. Usually t½ stands for the time needed for the level to fall by half in the phase considered.

For assay [1], the target named is T1, biotinylated hIL-33 protein (R&D systems, Cat #3625-IL/CF) (human, UniProt O95760 112-270, biotinylated (sites not given)).
T1 construct: Same commercial protein as m21, biotin-labelled; also called biotin-hIL-33
T1 sequence (looked up): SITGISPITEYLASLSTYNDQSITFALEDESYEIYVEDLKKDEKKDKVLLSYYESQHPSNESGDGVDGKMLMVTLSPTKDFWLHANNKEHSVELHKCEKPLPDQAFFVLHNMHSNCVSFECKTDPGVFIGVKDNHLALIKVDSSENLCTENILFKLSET
Nature of the assay: competition ELISA, 30 pM biotin-hIL-33 on coated hST2-hFc. Summed up: (§1)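 Readout was TMB absorbance at 450 nm after HRP detection (streptavidin for biotin-hIL-33, anti-His for MfIL-33-6His) on human ST2-hFc-coated wells. Antibodies preincubated 1 h at RT with fixed IL-33 (30 pM human, 150 pM cynomolgus) before 1 h plate binding; blockade scaled between IL-33-only and no-IL-33 signals.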
(In an ELISA, binding on a coated surface is turned into a signal by an enzyme label.)

In assay [2] the target is T2, human IL-33 (R&D Systems, #3625-IL-010/CF) (human, UniProt O95760 112-270).
T2 construct: Commercial recombinant protein; also called hIL-33; interleukin-33
T2 sequence (looked up): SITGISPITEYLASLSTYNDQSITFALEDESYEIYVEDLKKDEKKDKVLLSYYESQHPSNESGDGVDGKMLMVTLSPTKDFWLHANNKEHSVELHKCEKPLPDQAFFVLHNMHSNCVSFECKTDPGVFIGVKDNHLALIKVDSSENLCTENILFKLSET
Nature of the assay: SPR 37C, pH6.0 chase, mAb captured. Summed up:
(§2)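 For the pH chase, IL-33 bound the captured mAb for 4 min at pH 7.4, dissociated 30 s in the same buffer, then pH 6.0 ADA buffer was injected for 3 min while dissociation was recorded. Rates were fit to a 1:1 binding model.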

Assay [3] deals with T3, cynomolgus monkey IL-33 expressed with a C-terminal hexahistidine tag (cynomolgus monkey).
T3 construct: also called MfIL-33-6His; Mf-IL-33-6His
T3 chain: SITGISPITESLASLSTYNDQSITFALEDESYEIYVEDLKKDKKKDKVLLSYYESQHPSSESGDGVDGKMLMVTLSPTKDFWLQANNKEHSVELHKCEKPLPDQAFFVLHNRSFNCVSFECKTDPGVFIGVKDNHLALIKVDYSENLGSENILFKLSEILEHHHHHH
Nature of the assay: SPR 37C, pH6.0 chase, mAb captured. The method in brief: as §2

Assay [4] addresses T2, human IL-33 (R&D Systems, …). Nature of the assay: BLI; hIL-33 pre-mixed with mAb-2 H1M9565N. Summed up: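 Octet bio-layer interferometry competition at 25 °C in HBS-ET (pH 7.4). Human IL-33 (100 nM) pre-mixed ≥2 h with 500 nM mAb-2, then flowed 4 min over biosensors bearing captured anti-IL-33 antibody after Fc-site saturation. Binding response (nm) recorded at the end of each step.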
(In BLI a coated tip is dipped into the sample, and binding shifts an interference pattern.)

Assay [5] has as its target T3, cynomolgus monkey IL-33 expressed with …. Nature of the assay: competition ELISA, 150 pM MfIL-33-6His on coated hST2-hFc. Summed up:
as §1

B1: H1M9559N (antibody, mouse IgG1, V domains shown)
VH: QVQLVESGGGVVQPGRSLRLSCAASGFTFSSYGMHWVRQAPGKGLEWVAVIWYDGRNKYYTDSVKGRFTISRDNSKNTLYLQMDSLRAEDTAVYYCARERYISSYYGGFDPWGQGALVTVSS
VL: DIQMTQSPSSVSASVGDRVTITCRASQGISSWLAWYQQKPGKAPKVLIYAASSLQSGVPSRFSGSGSGTDFTLTISSLQPEDFATYYCQQANSFPFTFGPGTKLDIK
notes: Human variable domains, mouse IgG1 Fc (H1M)
As to B1, in assay [1], the “% Maximum blocking” value was 88% and the IC50 worked out at 0.14 nM. In addition, in assay [2], the koff was found to be 0.000992 s⁻¹, the t½ was determined as 12 min and the “t½ Ratio (pH 7.4/pH 6.0)” value amounted to 1. In addition, in assay [3], the koff worked out at 0.00307 s⁻¹, the t½ came to 4 min and the “t½ Ratio (pH 7.4/pH 6.0)” value is 0.9. Besides, the “mAb-1 Binding to the Pre-complex of mAb-2 & hIL-33” value in assay [4] was found to be 0.35 nm. Moreover, in assay [5], the “% Maximum blocking” value stood at 53% and the IC50 is 10 nM.
